Results on 31 molecules are retold here after patent publication US20260184782A1 (TWIST BIOSCIENCE, published 2026).

Usually Kd stands for the equilibrium constant for the complex coming apart. As usually defined, the koff is the first-order rate constant of dissociation. Usually kon stands for the second-order rate constant of association.

T1: recombinant human TIGIT (human, UniProt Q495A1 22-141, limits assumed)
T1 construct: recombinant human TIGIT used in Carterra SPR; also called hTIGIT
T1 sequence (looked up): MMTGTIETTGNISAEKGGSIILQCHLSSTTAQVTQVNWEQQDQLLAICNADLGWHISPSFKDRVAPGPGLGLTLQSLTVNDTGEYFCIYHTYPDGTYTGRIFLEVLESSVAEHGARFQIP

B1: TIGIT-SC54 (Fc fusion)
VHH: EVQLVESGGGLVQPGGSLRLSCAASGFSFDDYVMGWFRQAPGKERELVAVIVGEAITRYADSVKGRFTISADNSKNTAYLQMNSLKPEDTAVYYCARRGGSGRAFDIWGQGTLVTVSS
notes: VHH-Fc fusion in assay
B2: TIGIT-SC114 (Fc fusion)
VHH: EVQLVESGGGLVQPGGSLRLSCAASGNTFSGGFMGWFRQAPGKEREWVASVLRGGYTWYADSVKGRFTISADNSKNTAYLQMNSLKPEDTAVYYCATVGGRQRTLFDDWGQGTLVTVSS
notes: VHH-Fc fusion in assay
B3: TIGIT-SC155 (Fc fusion)
VHH: B2 VHH with T97G, V98D, G99Y, G100R, R101G, Q102F, R103E, T104M, L105A, D108P
notes: VHH-Fc fusion in assay
B4: TIGIT-SC159 (Fc fusion)
VHH: EVQLVESGGGLVQPGGSLRLSCAASGFTFDRSWMGWFRQAPGKEREWVASVLRGGYTWYADSVKGRFTISADNSKNTAYLQMNSLKPEDTAVYYCAREGRSSSPWFDPWGQGTLVTVSS
notes: VHH-Fc fusion in assay
B5: TIGIT-SC158 (Fc fusion)
VHH: B4 VHH with D30S, R31P
notes: VHH-Fc fusion in assay
B6: TIGIT-SC24 (Fc fusion)
VHH: EVQLVESGGGLVQPGGSLRLSCAASGFTFDRSWMGWFRQAPGKEREVVASITSGGSTYYADSVKGRFTISADNSKNTAYLQMNSLKPEDTAVYYCAADVWYGSTWRNWGQGTLVTVSS
notes: VHH-Fc fusion in assay
B7: TIGIT-SC31 (Fc fusion)
VHH: EVQLVESGGGLVQPGGSLRLSCAASGRAFESYAMGWFRQAPGKERELVATIGWSGTDYADSVKGRFTISADNSKNTAYLQMNSLKPEDTAVYYCAKGYTSGLSDWGQGTLVTVSS
notes: VHH-Fc fusion in assay
B8: TIGIT-SC46 (Fc fusion)
VHH: EVQLVESGGGLVQPGGSLRLSCAASGRTFSNYVMGWFRQAPGKERELVASISSFGSTYYADSVKGRFTISADNSKNTAYLQMNSLKPEDTAVYYCARSGGFLSDWGQGTLVTVSS
notes: VHH-Fc fusion in assay
B9: TIGIT-SC20 (Fc fusion)
VHH: EVQLVESGGGLVQPGGSLRLSCAASGNTFSGGFMGWFRQAPGKEREWVASVLRGGYTWYADSVKGRFTISADNSKNTAYLQMNSLKPEDTAVYYCATPRGYWGQGTLVTVSS
notes: VHH-Fc fusion in assay
B10: TIGIT-SC113 (Fc fusion)
VHH: EVQLVESGGGLVQPGGSLRLSCAASGFTLNDYAMGWFRQAPGKERELVAWIARYDGSTLYADSVKGRFTISADNSKNTAYLQMNSLKPEDTAVYYCTWGDGYNLGAFDIWGQGTLVTVSS
notes: VHH-Fc fusion in assay
B11: TIGIT-SC112 (Fc fusion)
VHH: B10 VHH with F27R, N30R, D31R, A33V, W50A, A52D, R53W, Y54S, D55G, T58A
notes: VHH-Fc fusion in assay
B12: TIGIT-SC169 (Fc fusion)
VHH: B10 VHH with W98T, G99E, D100L, G101R, Y102W, N103E, G105Q, A106Q, F107P, I109Y
notes: VHH-Fc fusion in assay
B13: TIGIT-SC117 (Fc fusion)
VHH: EVQLVESGGGLVQPGGSLRLSCAASGNTFSGGFMGWFRQAPGKEREWVASVLRGGYTWYADSVKGRFTISADNSKNTAYLQMNSLKPEDTAVYYCDAADYWGQGTLVTVSS
notes: VHH-Fc fusion in assay
B14: TIGIT-SC57 (Fc fusion)
VHH: B13 VHH with D96T, A97T, A98Y, D99R, Y100G
notes: VHH-Fc fusion in assay
B15: TIGIT-SC116 (Fc fusion)
VHH: B13 VHH with N27F, G31P, G32S, F33W
notes: VHH-Fc fusion in assay
B16: TIGIT-SC115 (Fc fusion)
VHH: B13 VHH with D96A, A97G, A98T, D99G, Y100L
notes: VHH-Fc fusion in assay
B17: TIGIT-SC121 (Fc fusion)
VHH: EVQLVESGGGLVQPGGSLRLSCAASGFTFSPSWMGWFRQAPGKEREWVASVLRGGYTWYADSVKGRFTISADNSKNTAYLQMNSLKPEDTAVYYCTTEGFDPWGQGTLVTVSS
notes: VHH-Fc fusion in assay
B18: TIGIT-SC98 (Fc fusion)
VHH: B17 VHH with F27N, P31G, S32G, W33F
notes: VHH-Fc fusion in assay
B19: TIGIT-SC111 (Fc fusion)
VHH: B17 VHH with F27D, P31G, S32G, W33F, T97R, E98G, F100M, P102V
notes: VHH-Fc fusion in assay
B20: TIGIT-SC60 (Fc fusion)
VHH: B17 VHH with T96A, T97R, E98D, G99D, F100L, P102Y
notes: VHH-Fc fusion in assay
B21: TIGIT-SC187 (Fc fusion)
VHH: B17 VHH with E98D, G99S, F100L, D101P, P102G
notes: VHH-Fc fusion in assay
B22: TIGIT-SC188 (Fc fusion)
VHH: B17 VHH with F27N, P31G, S32G, W33F, E98D, G99S, F100L, D101P, P102G
notes: VHH-Fc fusion in assay
B23: TIGIT-SC84 (Fc fusion)
VHH: EVQLVESGGGLVQPGGSLRLSCAASGGTFTIYPMGWFRQAPGKEREWVAGINEYGGRYADSVKGRFTISADNSKNTAYLQMNSLKPEDTAVYYCARDLNAMGDAYDIWGQGTLVTVSS
notes: VHH-Fc fusion in assay
B24: TIGIT-SC13 (Fc fusion)
VHH: EVQLVESGGGLVQPGGSLRLSCAASGRTFSFMGWFRQAPGKEREWVASVLRGGYTWYADSVKGRFTISADNSKNTAYLQMNSLKPEDTAVYYCATESMDYWGQGTLVTVSS
notes: VHH-Fc fusion in assay
B25: TIGIT-SC25 (Fc fusion)
VHH: EVQLVESGGGLVQPGGSLRLSCAASGNTFSGGFMGWFRQAPGKEREWVASVLRGGYTWYADSVKGRFTISADNSKNTAYLQMNSLKPEDTAVYYCTTVGYGDYWGQGTLVTVSS
notes: VHH-Fc fusion in assay
B26: TIGIT-SC171 (Fc fusion)
VHH: EVQLVESGGGLVQPGGSLRLSCAASGFTFDRSWMGWFRQAPGKEREWVASVLRGGYTWYADSVKGRFTISADNSKNTAYLQMNSLKPEDTAVYYCATERRLGVWGQGTLVTVSS
notes: VHH-Fc fusion in assay
B27: TIGIT-SC42 (Fc fusion)
VHH: B25 VHH with S50T, T96A, T97S, V98G, Y100F, G101L, D102A, Y103S
notes: VHH-Fc fusion in assay
B28: TIGIT-SC191 (Fc fusion)
VHH: B26 VHH with T28V, D30S, R31S, S32D, T97R, E98G, R99D, R100S, L101M, G102D
notes: VHH-Fc fusion in assay
B29: TIGIT-SC51 (Fc fusion)
VHH: EVQLVESGGGLVQPGGSLRLSCAASGRTEANYAMGWFRQAPGKEREFVAAISWDGGATAYADSVKGRFTISADNSKNTAYLQMNSLKPEDTAVYYCGDYEGHWGQGTLVTVSS
notes: VHH-Fc fusion in assay
B30: TIGIT-SC68 (Fc fusion)
VHH: B29 VHH with R27H, E29F, A30R, N31G, F47A, D54S, G56D, A57N, A59Y
notes: VHH-Fc fusion in assay
B31: TIGIT-SC134 (Fc fusion)
VHH: EVQLVESGGGLVQPGGSLRLSCAASGFTLENNMMGWFRQAPGKEREFVAAISASGTLRAYADSVKGRFTISADNSKNTAYLQMNSLKPEDTAVYYCARWYRVNNWSPGYYYYMDVWGQGTLVTVSS
notes: VHH-Fc fusion in assay

Substitutions are numbered along the chain they refer to.

In the test the target is T1, recombinant human TIGIT. As to the kind of experiment: SPR Carterra, average. Here is the method:
Binding affinities of VHH-Fc proteins to recombinant human TIGIT were measured by SPR using a Carterra instrument (Table 10A). […] Average values reported from measurements from 1-2 samples.
Take B1: the Kd was 3.71 nM, the koff is 0.00982 s⁻¹ and the kon is 3e+06 M⁻¹ s⁻¹.

Consider B2, for which the Kd is 45.2 nM, the koff stood at 0.00227 s⁻¹ and the kon is 50700 M⁻¹ s⁻¹.

For B3, the Kd is 126 nM, the koff worked out at 0.00647 s⁻¹ and the kon came out at 51300 M⁻¹ s⁻¹.

Take B4: the Kd is 14.6 nM, the koff was found to be 0.00144 s⁻¹ and the kon stood at 92000 M⁻¹ s⁻¹.

Regarding B5, the Kd came out at 143 nM, the koff amounted to 0.00154 s⁻¹ and the kon is 18200 M⁻¹ s⁻¹.

With B6, the Kd came to 3.08 nM, the off-rate constant (koff) stood at 0.000894 s⁻¹ and the kon was determined as 506000 M⁻¹ s⁻¹.

As to B7, the dissociation constant Kd was determined as 4.74 nM, the dissociation rate constant (koff) was 0.0062 s⁻¹ and the association rate constant (kon) was 1.31e+06 M⁻¹ s⁻¹.

In the case of B8, the Kd turned out to be 4.45 nM, the koff amounted to 0.00416 s⁻¹ and the kon was determined as 1.01e+06 M⁻¹ s⁻¹.

Regarding B9, the Kd was determined as 2.7 nM, the koff stood at 0.0007 s⁻¹ and the kon came to 260000 M⁻¹ s⁻¹.

As for B10, the equilibrium dissociation constant (Kd) stood at 1.88 nM, the koff came out at 0.000483 s⁻¹ and the kon was found to be 257000 M⁻¹ s⁻¹.

Take B11: the Kd was determined as 13.2 nM, the koff came to 0.00393 s⁻¹ and the kon stood at 297000 M⁻¹ s⁻¹.

As for B12, the Kd was found to be 978 nM, the dissociation rate constant (koff) was 0.206 s⁻¹ and the kon worked out at 211000 M⁻¹ s⁻¹.

In the case of B13, the Kd amounted to 9.63 nM, the koff stood at 0.0012 s⁻¹ and the kon worked out at 125000 M⁻¹ s⁻¹.

Take B14: the Kd turned out to be 25.2 nM, the koff came to 0.00511 s⁻¹ and the kon turned out to be 149000 M⁻¹ s⁻¹.

For the molecule B15, the Kd was found to be 4.08 nM, the koff was found to be 0.000696 s⁻¹ and the kon came out at 209000 M⁻¹ s⁻¹.

In the case of B16, the Kd was 8.42 nM, the koff stood at 0.00241 s⁻¹ and the kon came to 262000 M⁻¹ s⁻¹.

B17: the Kd stood at 4.68 nM, the koff is 0.00112 s⁻¹ and the on-rate constant (kon) turned out to be 344000 M⁻¹ s⁻¹.

As to B18, the Kd was found to be 5.79 nM, the koff came to 0.00137 s⁻¹ and the kon came out at 237000 M⁻¹ s⁻¹.

Consider B19, for which the dissociation constant (Kd) turned out to be 4.37 nM, the koff amounted to 0.00743 s⁻¹ and the kon was 1.7e+06 M⁻¹ s⁻¹.

With B20, the Kd was found to be 84.6 nM, the koff was 0.00184 s⁻¹ and the kon came out at 21800 M⁻¹ s⁻¹.

On to B21, for which the Kd is 17.2 nM, the koff amounted to 0.000586 s⁻¹ and the kon was found to be 34000 M⁻¹ s⁻¹.

B22: the Kd is 77.1 nM, the koff was 0.00309 s⁻¹ and the kon came out at 42500 M⁻¹ s⁻¹.

With B23, the Kd was at most 3.15 nM, the koff was at most 1e-05 s⁻¹ and the kon amounted to 3180 M⁻¹ s⁻¹.

Take B24: the Kd was found to be 3.08 nM, the koff worked out at 0.000199 s⁻¹ and the kon was 60100 M⁻¹ s⁻¹.

On to B25, for which the Kd was determined as 22.5 nM, the off-rate constant (koff) worked out at 0.00174 s⁻¹ and the kon was determined as 77200 M⁻¹ s⁻¹.

In the case of B26, the Kd is 51 nM, the koff stood at 0.00441 s⁻¹ and the kon came to 90200 M⁻¹ s⁻¹.

Regarding B27, the Kd was found to be 1400 nM, the koff turned out to be 0.197 s⁻¹ and the kon came to 141000 M⁻¹ s⁻¹.

Take B28: the Kd is 401 nM, the koff was 0.125 s⁻¹ and the kon turned out to be 313000 M⁻¹ s⁻¹.

As to B29, the Kd was determined as 5.15 nM, the koff amounted to 0.00981 s⁻¹ and the kon is 2.1e+06 M⁻¹ s⁻¹.

On to B30, for which the Kd stood at 5.49 nM, the koff was 0.0103 s⁻¹ and the kon stood at 1.87e+06 M⁻¹ s⁻¹.

B31: the Kd is 1.47 nM, the koff came to 8.98e-05 s⁻¹ and the kon came to 60900 M⁻¹ s⁻¹.
